Patent publication US20230399362A1 (B A I LABORATORIES, published 2023)
Square brackets hold non-standard residues; d marks the D form.

B1: Tralokinumab (antibody, V domains shown)
VH: QVQLVQSGAEVKKPGASVKVSCKASGYTFTNYGLSWVRQAPGQGLEWMGWISANNGDTNYGQEFQGRVTMTTDTSTSTAYMELRSLRSDDTAVYYCARDSSSSWARWFFDLWGRGTLVTVSS
VL: SYVLTQPPSVSVAPGKTARITCGGNIIGSKLVHWYQQKPGQAPVLVIYDDGDRPSGIPERFSGSNSGNTATLTISRVEAGDEADYYCQVWDTGSDPVVFGGGTKLTVL
B2: Compound 1 (peptide)
peptide: cyclo([dR][dF][dV]YEP)
SMILES: CC(C)[C@H]1NC(=O)[C@@H](Cc2ccccc2)NC(=O)[C@@H](CCCNC(=N)N)NC(=O)[C@@H]2CCCN2C(=O)[C@H](CCC(=O)O)NC(=O)[C@H](Cc2ccc(O)cc2)NC1=O
B3: Compound 10 (peptide)
peptide: cyclo(RDYC[dP][dW][dP])
SMILES: N=C(N)NCCC[C@@H]1NC(=O)[C@H]2CCCN2C(=O)[C@@H](Cc2c[nH]c3ccccc23)NC(=O)[C@H]2CCCN2C(=O)[C@H](CS)NC(=O)[C@H](Cc2ccc(O)cc2)NC(=O)[C@H](CC(=O)O)NC1=O
B4: Compound 11 (peptide)
peptide: cyclo(VP[dL][dW][dV]LRP)
SMILES: CC(C)C[C@@H]1NC(=O)[C@@H](C(C)C)NC(=O)[C@@H](Cc2c[nH]c3ccccc23)NC(=O)[C@@H](CC(C)C)NC(=O)[C@@H]2CCCN2C(=O)[C@H](C(C)C)NC(=O)[C@@H]2CCCN2C(=O)[C@H](CCCNC(=N)N)NC1=O
B5: Compound 2 (peptide)
peptide: cyclo(RT[dV]E[dF][dP])
SMILES: CC(C)[C@H]1NC(=O)[C@H]([C@@H](C)O)NC(=O)[C@H](CCCNC(=N)N)NC(=O)[C@H]2CCCN2C(=O)[C@@H](Cc2ccccc2)NC(=O)[C@H](CCC(=O)O)NC1=O
B6: Compound 3 (peptide)
peptide: cyclo(E[dT][dV]W[dP][dP])
SMILES: CC(C)[C@H]1NC(=O)[C@@H]([C@H](C)O)NC(=O)[C@H](CCC(=O)O)NC(=O)[C@H]2CCCN2C(=O)[C@H]2CCCN2C(=O)[C@H](Cc2c[nH]c3ccccc23)NC1=O
B7: Compound 4 (peptide)
peptide: cyclo(RE[dV]W[dP][dP])
SMILES: CC(C)[C@H]1NC(=O)[C@H](CCC(=O)O)NC(=O)[C@H](CCCNC(=N)N)NC(=O)[C@H]2CCCN2C(=O)[C@H]2CCCN2C(=O)[C@H](Cc2c[nH]c3ccccc23)NC1=O
B8: Compound 5 (peptide)
peptide: cyclo(WVRE[dP][dP])
SMILES: CC(C)[C@@H]1NC(=O)[C@H](Cc2c[nH]c3ccccc23)NC(=O)[C@H]2CCCN2C(=O)[C@H]2CCCN2C(=O)[C@H](CCC(=O)O)NC(=O)[C@H](CCCNC(=N)N)NC1=O
B9: Compound 6 (peptide)
peptide: cyclo(YRE[dT][dV][dP])
SMILES: CC(C)[C@H]1NC(=O)[C@@H]([C@H](C)O)NC(=O)[C@H](CCC(=O)O)NC(=O)[C@H](CCCNC(=N)N)NC(=O)[C@H](Cc2ccc(O)cc2)NC(=O)[C@H]2CCCN2C1=O
B10: Compound 7 (peptide)
peptide: cyclo(TR[dF]P[dL][dP])
SMILES: CC(C)C[C@H]1NC(=O)[C@@H]2CCCN2C(=O)[C@@H](Cc2ccccc2)NC(=O)[C@H](CCCNC(=N)N)NC(=O)[C@H]([C@@H](C)O)NC(=O)[C@H]2CCCN2C1=O
B11: Compound 9 (peptide)
peptide: cyclo([dR]L[dW]W[dT]EP)
SMILES: CC(C)C[C@@H]1NC(=O)[C@@H](CCCNC(=N)N)NC(=O)[C@@H]2CCCN2C(=O)[C@H](CCC(=O)O)NC(=O)[C@@H]([C@H](C)O)NC(=O)[C@H](Cc2c[nH]c3ccccc23)NC(=O)[C@@H](Cc2c[nH]c3ccccc23)NC1=O
B12: Compound 8 (peptide)
peptide: cyclo([dL]REPWMP)
SMILES: CSCC[C@@H]1NC(=O)[C@H](Cc2c[nH]c3ccccc23)NC(=O)[C@@H]2CCCN2C(=O)[C@H](CCC(=O)O)NC(=O)[C@H](CCCNC(=N)N)NC(=O)[C@@H](CC(C)C)NC(=O)[C@@H]2CCCN2C1=O

Molecular target: T1, Human IL-13 with an Fc-tag (human, UniProt P35225 35-146, limits assumed)
T1 construct: Immobilized on CM5 chip (about 5000 RU); also called Interleukin-13; not shown: Fc-tag
T1 sequence (P35225 35-146 limits assumed): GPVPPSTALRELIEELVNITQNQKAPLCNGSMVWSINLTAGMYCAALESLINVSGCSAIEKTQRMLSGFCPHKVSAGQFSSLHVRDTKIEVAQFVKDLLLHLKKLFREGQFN
Test: SPR, BIAcore 8K plus, human IL-13-Fc immobilized on CM5, positive control

| Binder | Kd [µM] |
| --- | --- |
| B1 | 0.000309 |

Molecular target: T1, Human IL-13 with an Fc-tag
Test: SPR, BIAcore 8K plus, human IL-13-Fc immobilized on CM5, peptide as analyte, 25 C

| Binder | Kd [µM] |
| --- | --- |
| B2 | 16 |
| B3 | 368 |
| B4 | 622 |
| B5 | 17.4 |
| B6 | 22.8 |
| B7 | 26.2 |
| B8 | 47.1 |
| B9 | 55.4 |
| B10 | 85.1 |
| B11 | 337 |
| B12 | 99.5 |
